This note sets out measurements from patent US20200055937A1 (REMD BIOTHERAPEUTICS, published 2020).

Numbering of substitutions follows the chain as printed. A value given as a limit tells only on which side of the number the result lay.

Assay [1] addresses T1, CTLA4-his (UniProt P16410 36-161, limits assumed).
T1 construct: construct not described; also called Ag CTLA4-his; Antigen CTLA4-his; not shown: his tag
T1 sequence (looked up): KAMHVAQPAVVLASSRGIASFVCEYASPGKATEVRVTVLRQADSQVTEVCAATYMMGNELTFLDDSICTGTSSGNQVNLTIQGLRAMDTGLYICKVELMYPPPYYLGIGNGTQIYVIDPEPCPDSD
The assay is described as follows: SPR Biacore 8k, purified antibody captured on chip, CTLA4-his as analyte (as the text says; same values as Table 5).

In assay [2] the target is T2, CTLA4-Fc (UniProt P16410 36-161, limits assumed).
T2 construct: Construct not described; also called Ag CTLA4-Fc; Antigen CTLA4-Fc; not shown: Fc part
T2 sequence (looked up): T1 sequence (looked up)
The assay is described as follows: SPR Biacore T200, CTLA4-Fc amine-coupled, antibody as analyte; apparent KD. On the procedure: (§1) Antigen CTLA4-Fc was immobilized on the sensor chip through amine coupling method. Antibody was used as the analyte. The data of dissociation (kd) and association (kₐ) rate constants were obtained using Biacore T200 evaluation software. The apparent equilibrium dissociation constants (KD) were calculated from the ratio of kd over kₐ.

In assay [3] the target is T2, CTLA4-Fc. The assay is described as follows: SPR Biacore T200, CTLA4-Fc amine-coupled, antibody as analyte. On the procedure:
as §1

The target of the next assay is T3, cyno Macaque CTLA-4 (cyno Macaque, UniProt G7PL88 36-161).
T3 construct: ELISA antigen; construct not described; also called CynoCTLA-4; cyno CTLA-4
T3 sequence: T1 sequence (looked up) with S14N, I18T, L106M
The assay is described as follows: ELISA, cyno CTLA-4 binding.

In assay [4] the target is T4, human CTLA-4 (human, UniProt P16410 36-161, limits assumed).
T4 construct: also called HuCTLA-4; human cytotoxic T lymphocyte antigen-4
T4 sequence: T1 sequence (looked up)
The experiment in a line: ratio of the IC50 for blocking CD80 to the IC50 for blocking CD86 on CTLA-4.

In assay [5] the target is T4, human CTLA-4. The experiment in a line: ligand blocking assay with purified proteins; competitor CD86.
Assay [6] has as its target T4, human CTLA-4. The assay is described as follows: ELISA, human CTLA-4 binding.
Assay [7] has as its target T4, human CTLA-4. The experiment in a line: ligand blocking assay with purified proteins; competitor CD80.
Assay [8] addresses T2, CTLA4-Fc. The experiment in a line: cell-based or functional assay.
In the next assay the target is T5, murine CTLA-4 (murine, UniProt P09793 36-161, limits assumed).
T5 construct: ELISA antigen; construct not described; also called mouse CTLA-4
The assay is described as follows: ELISA, murine CTLA-4 binding assay.

Assay [9] has as its target T1, CTLA4-his. The assay is described as follows: SPR Biacore 8k, purified antibody captured on chip, CTLA4-his as analyte; purified antibody, Biacore 8k. As for the experimental part: (§2) The affinities of purified antibody binding to CTLA4-his was determined using a Surface Plasmon Resonance (SPR) biosensor, Biacore 8k. Antibodies were immobilized on the sensor chip through capture method. Antigen CTLA4-his was used as the analyte. The data of dissociation (kd) and association (ka) rate constants were obtained using Biacore 8k evaluation software. The equilibrium dissociation constants (KD) were calculated from the ratio of kd over ka.

In assay [10] the target is T1, CTLA4-his. The experiment in a line: SPR Biacore 8k, purified antibody captured on chip, CTLA4-his as analyte. On the procedure: as §2
Assay [11] deals with T1, CTLA4-his. The experiment in a line: SPR Biacore T200, antibody from supernatant captured by anti-human Fc, CTLA4-his injected. On the procedure: (§3) Affinity ranking of the fifteen humanized antibodies was determined using a Surface Plasmon Resonance (SPR) biosensor, Biacore T200 (GE Healthcare). Anti-human Fc gamma specific antibody was immobilized onto the sensor chip using amine coupling method. […] After equilibration, Ag CTLA4-his was injected for 300 seconds (association phase) followed by the injection of running buffer for 600s (dissociation phase). Responses of reference flow cell (flow cell 1) were subtracted from those of humanized antibodies flow cells during each cycle. The surface was regenerated before the injection of other humanized antibodies. The process was repeated until all antibodies are analyzed. The off-rates of humanized antibodies were obtained from fitting the experimental data locally to 1:1 interaction model using the Biacore 8K evaluation software. The antibodies were ranked by their dissociation rate constants (off-rates, kd).

Assay [12] has as its target T2, CTLA4-Fc. The assay is described as follows: cell-based or functional assay. The source holds these as a separate data set.
In assay [13] the target is T1, CTLA4-his. The assay is described as follows: SPR Biacore T200, antibody from supernatant captured by anti-human Fc, CTLA4-his injected; supernatant antibody, off-rate ranking, 600 s dissociation. On the procedure:
as §3

B1: MAb A4 (13F10D7) (antibody, V domains shown)
VH: EVQLRQSGPELVKPGTSVKISCKASGYKFTDHFINWVKQNHGKSLEWIGDINPNNGGTNSNQKFEGKATLTVDKSSSTAYMELRSLTSEDSAVYYCARLRREYFYAMDYWGQGTSVTVSS
VL: DIVMTQAAFSNPVTLGTSASISCRSSKSLLHSNGITYLYWYLQKPGQSPQLLIYQMSNLASGVPDRFSSSGSGTDFTLRISRVEAEDVGVYYCAQNLELPLTFGAGTKLELK
notes: also called Murine MAb A4; murine antibody A4
For the molecule B1, the Kd with CTLA4-his [1] and with CTLA4-Fc [2] was 963 pM in each case. In addition, the koff with CTLA4-his [1] and in the assay with CTLA4-Fc [3] was 0.000551 s⁻¹ in each case. The kon in the assay with CTLA4-his [1] and with CTLA4-Fc [3] was 573000 M⁻¹ s⁻¹ in each case. Moreover, the figures for the EC50 with cyno Macaque CTLA-4 and with human CTLA-4 [6] were 24 pM and 34 pM, respectively. Also, the “CD80/CD86 Blocking Ratio” value with human CTLA-4 [4] stood at 2.01. The IC50 with human CTLA-4 [5] is 287 pM; with human CTLA-4 [7], 579 pM. Moreover, the “IC50 (nM), IL-2 secreted by Jurkat cells co-cultured with CHO/CD80 cells, Experiment 1” value (“IC50 (nM), IL-2 secreted … Experiment 1” below) in the assay with CTLA4-Fc [8] is 11 nM. In addition, in the assay with CTLA4-Fc [8], the “IC50 (nM), IL-2 secreted by Jurkat cells co-cultured with CHO/CD80 cells, Experiment 2” value (“IC50 (nM), IL-2 secreted … Experiment 2” for short) worked out at 13.2 nM. In addition, the binding result with murine CTLA-4 is recorded as “no binding”.

B2: chimeric IgG (antibody, V domains shown)
VH: B1 VH
VL: DIVMTQAAFSNPVTLGTSASISCRSSKSLLHSNGITYLYWYLQKPGQSPQLLIYQMSNLASGVPDRFSSSGSGTDFTLRISRVEAEDVGVYYCAQNLELPLTFGAGTKLELKR
notes: Variable domains of MAb A4 on human IgG1 and kappa, expressed in HEK293; also called murine-human chimeric antibody derived from murine antibody A4
On to B2, for which the Kd in the assay with CTLA4-Fc [2] is 82 pM; with CTLA4-his [10], 13.1 pM; with CTLA4-his [11], 60.2 pM. Besides, the koff was 5.09e-05 s⁻¹ in the assay with CTLA4-Fc [3], not above 1e-05 s⁻¹ in the assay with CTLA4-his [9] and 2.59e-05 s⁻¹ in the assay with CTLA4-his [11]. The kon with CTLA4-Fc [3] amounted to 621000 M⁻¹ s⁻¹; with CTLA4-his [10] it was 765000 M⁻¹ s⁻¹; with CTLA4-his [11], 430000 M⁻¹ s⁻¹.

B3: MAb A5 (32G4C12) (antibody, V domains shown)
VH: QVQLQQSGPELVRPGASVKLSCKASGYTFTTYDINWVKQRPGQGLEWIGWIYPRDGSIIFNEKFKGKATLTVDTTSSTAYMELHSLTSEDSAVYFCARRGLLGPLDYWGQGTPLTVSS
VL: DIVMTQSHKFMSTSVGDRVSITCKASQDVATTVAWYQQKPGQSPKLVIYWASTRHTGVPDRFTGSGSGTDFTLTISNVQSEDLADYFCQQYSSYPTFGVGTKLELK
notes: also called murine antibody A5
For B3, the 50% effective concentration (EC50) amounted to 45 pM in the assay with cyno Macaque CTLA-4 and 49 pM with human CTLA-4 [6]. Moreover, in the assay with human CTLA-4 [4], the “CD80/CD86 Blocking Ratio” value was 2.37. Moreover, the 50% inhibitory concentration (IC50) with human CTLA-4 [5] is 271 pM; in the assay with human CTLA-4 [7] it was 641 pM. For the same molecule, in the assay with CTLA4-Fc [8], the “IC50 (nM), IL-2 secreted … Experiment 1” value amounted to 27.3 nM. In the assay with CTLA4-Fc [8], the “IC50 (nM), IL-2 secreted … Experiment 2” value is 16.6 nM. In addition, the binding result with murine CTLA-4 was “no binding”.

B4: Humanized Ab 11 (VH4 + VL2) (antibody, human IgG1, kappa)
heavy: not shown
light: DIVMTQSPLSLPVTPGEPASISCRSSKSLLHSNGITYLYWYLQKPGQSPQLLIYQMSNLASGVPDRFSSSGSGTDFTLKISRVEAEDVGVYYCAQNLELPLTFGGGTKVEIKRTVAAPSVFIFPPSDEQLKSGTASVVCLLNNFYPREAKVQWKVDNALQSGNSQESVTEQDSKDSTYSLSSTLTLSKADYEKHKVYACEVTHQGLSSPVTKSFNRGEC
notes: Humanized IgG1 derived from MAb A4
Regarding B4, in the assay with CTLA4-Fc [12], the “IC50 (nM), Jurkat cell activation assay of Example 2 (IL-2)” value (from here on “IC50 (nM), Jurkat cell activation assay”) amounted to 8.7 nM. In the assay with CTLA4-his [10], this molecule had a Kd of 339 pM, a koff of 0.000307 s⁻¹ and a kon of 904000 M⁻¹ s⁻¹. In the assay with CTLA4-his [11], the Kd is 684 pM, the off-rate (koff) was 0.000305 s⁻¹ and the on-rate (kon) is 446000 M⁻¹ s⁻¹.

B5: Humanized Ab 15 (VH7 + VL3) (antibody, human IgG1, kappa, V domains shown)
VH: QVQLVQSGAEVVKPGASVKISCKASGYKFTDHFINWVKQNPGQGLEWIGDINPNNGGTNSNQKFEGKATLTVDKSISTAYMELRRLRSDDTAVYYCARLRREYFYAMDYWGQGTLVTVSS
VL: B2 VL with A7S, A8P, F9L, N11L, L15P, T17E, S18P, R79K, A105G, L111I
notes: as for B4
For B5, the “IC50 (nM), Jurkat cell activation assay” value in the assay with CTLA4-Fc [12] is 3.1 nM. In the assay with CTLA4-his [10], the Kd was 14.2 pM, the off-rate constant (koff) came to 1.03e-05 s⁻¹ and the kon was found to be 727000 M⁻¹ s⁻¹. In the assay with CTLA4-his [11], this molecule had a Kd not above 47.2 pM and an association rate constant (kon) of 212000 M⁻¹ s⁻¹. This molecule also registered a koff in the assay with CTLA4-his [13] not above 1e-05 s⁻¹.

B6: Humanized Ab 14 (VH6 + VL3) (antibody, human IgG1, kappa, V domains shown)
VH: B5 VH with V12K, I20V, N40A
VL: B2 VL with A7S, A8P, F9L, N11L, L15P, T17E, S18P, R79K, A105G, L111I
notes: as for B4
Regarding B6, in the assay with CTLA4-Fc [12], the “IC50 (nM), Jurkat cell activation assay” value was 3.1 nM. In the assay with CTLA4-his [10], this molecule had a Kd of 24.8 pM, a dissociation rate constant (koff) of 1.99e-05 s⁻¹ and a kon of 802000 M⁻¹ s⁻¹. In addition, in the assay with CTLA4-his [11], the Kd is not above 45.2 pM, the koff is not above 1e-05 s⁻¹ and the on-rate (kon) came out at 221000 M⁻¹ s⁻¹.

B7: MAb A2 (7G10D3) (antibody, V domains shown)
VH: QIQLVQSGPELKKPGETVKISCKASGYTFTTYGMSWVKQTPGKGLKWMGWINTYSGVPTYADDFKGRFAFSLETSASTAYLQINNLKNEDTATYFCARGRDYYGSSYRLFGVWGTGTTVTVSS
VL: DIQMTQTTSSLSASLGDRVTISCRASQDISNYLNWYQQKPDGTVKLLIYYTSILNSGVPSKFSGSGSGTDYSLTISNLEQEDIATYFCQQGNTLPWTFGGGTKLEIK
notes: also called murine antibody A2
Regarding B7, the EC50 was 10 pM with cyno Macaque CTLA-4 and 77 pM in the assay with human CTLA-4 [6]. Besides, in the assay with human CTLA-4 [4], the “CD80/CD86 Blocking Ratio” value came to 7.91. Besides, the results for the IC50 in the assay with human CTLA-4 [5] and with human CTLA-4 [7] were 1620 pM and 12800 pM, respectively. In addition, the “IC50 (nM), IL-2 secreted … Experiment 1” value with CTLA4-Fc [8] came to 26.4 nM. Further, the “IC50 (nM), IL-2 secreted … Experiment 2” value with CTLA4-Fc [8] was 22.3 nM. Besides, in the assay with murine CTLA-4, the binding result was “no binding”.

B8: MAb A3 (32G12D2) (antibody, V domains shown)
VH: QVQLQQPGAELVRPGSSVKLSCKASGYTFTSYWMHWVKQRPIQGLEWIGNIDPSDSETHYNQNFKDKATLTVDKSSSTAYLQLSSLTSEDSAVYYCARRYTSSSFDYWGQGTTLTVSS
VL: B7 VL with I21V, S30R, Y50F, I53K, N55H, K61R, S72F, T74A, W96Y
notes: also called murine antibody A3
As to B8, the 50% effective concentration (EC50) is 54 pM in the assay with cyno Macaque CTLA-4 and 26 pM with human CTLA-4 [6]. For the same molecule, the “CD80/CD86 Blocking Ratio” value in the assay with human CTLA-4 [4] came to 2.23. The IC50 was determined as 369 pM with human CTLA-4 [5] and 822 pM with human CTLA-4 [7]. In addition, the “IC50 (nM), IL-2 secreted … Experiment 1” value in the assay with CTLA4-Fc [8] is 22.7 nM. Moreover, the “IC50 (nM), IL-2 secreted … Experiment 2” value in the assay with CTLA4-Fc [8] is 14.9 nM. Besides, the binding result with murine CTLA-4 is given as “no binding”.
